Experimental findings from US20220227866A1 (VELOSBIO, published 2022) are described below.

Values joined by “and” are separate entries in the source; they are usually repeats but may differ in a detail not shown here. Identical values can stand only once.

Assay [1] addresses T1, soluble biotinylated human ROR1 extracellular domain (human, UniProt Q01973 30-406, biotinylated with EZ-Link Sulfo-NHS-LC-Biotin at a 1:5 molar ratio).
T1 construct: Acro Biosystems cat; whole entry named; also called b-ROR1; soluble b-ROR1
Kind of assay: ELISA, captured construct, biotinylated ROR1 titrated. How it is done: To measure the binding of bispecific constructs to soluble ROR1, a 96-well Costar-3366 plate was coated with 50 μL/well of 2 μg/mL goat anti-human kappa (Southern Biotech cat. #2060-01) in PBS overnight at 4° C. The plate was rinsed once with PBS-T, blocked with 100 μL/well 5% M-P for 1 h at 25° C., rinsed once with PBS-T, and 2 μg/mL of the bispecific binding molecule was added and incubated for 1 h at 25° C. The plate was washed three times with PBS-T. Biotinylated ROR1 was diluted serially, 3-fold in 5% M-P and was incubated for 1 h at 25° C. (50 μL/well). The plate was washed three times with PBS-T. To detect the binding of b-ROR1, 50 μL/well Neutravidin-HRP (Pierce cat. #31030) diluted 1:5000 in 1% BSA-PBS was added for 1 h at 25° C. The plate was washed three times with PBS-T, then developed with 50 μL/well 1-Step Ultra TMB-ELISA (Thermo Scientific cat. #34028). The reaction was terminated by the addition of 2 N H₂SO₄ and the A450 was determined using a Spectramax plate reader.
The stronger binding observed with bivalent constructs versus monovalent constructs in cell assays and ELISAs in which the antigen is immobilized is consistent with an avidity effect. To determine if this was the case, binding to soluble monomeric ROR1 was assessed by immobilizing the bispecific binding molecules on a microtiter plate coated with goat anti-human kappa antibody and titrating biotinylated RORL. All bispecific binding molecules were active in this format (FIG. 7), and in most cases, there were no notable differences between monovalent and bivalent constructs.
In general terms: ELISA stands for enzyme-linked immunosorbent assay.

Assay [2] has as its target T2, human CD3 on Jurkat cells (human, UniProt P09693 23-182; P04234 22-171; P07766 23-207).
T2 construct: GenBank NP_000064.1, NP_000723.1, NP_000724.1
Kind of assay: flow cytometry on Jurkat cells (1 ug/mL construct on ice, washed, then 37 C). How it is done: (§1) To quantitate CD3 binding, 2.5E5 Jurkat cells were used for each condition. A 2× stock of the cells was made by resuspending the cells to 5E6/mL by placing in 50 μL of PBS with 2% FBS. Next, the cells were diluted with an equal volume of 2× stock of the test bispecific binding molecule. The cells and antibody were co-incubated on ice for 20 min. The cells were then washed 3 times with 300 μL of FACS buffer and were resuspended in 100 μL of goat anti-human Fc-PE conjugate antibody (Invitrogen cat. #12499882) at 1:500 dilution and incubated on ice with reduced light for 20 min. The cells were then washed 3 times with 300 μL of FACS buffer and fixed with 2% paraformaldehyde for 10 min at 25° C. The cells were washed 2 times with 300 μL of FACS buffer and analyzed on a Miltenyi MACSQuant Analyzer.
To quantitate internalization of the bispecific binding molecules, 2.5E5 Jurkat cells were co-incubated with 1 μg/mL of the bispecific binding molecule on ice for 20 min. The cells were then washed 3 times 300 μL with ice-cold FACS buffer and were resuspended in culture media and incubated at 37° C. At various times, cells were removed, washed with 300 μL ice-cold FACS buffer and processed as described above.

Assay [3] addresses T3, recombinant human ROR1 extracellular domain (human, UniProt Q01973 30-406).
T3 construct: Bought (Acro Biosystems cat. R01-H522Y); whole entry named; also called ROR1-ECD; immobilized ROR1
Kind of assay: ELISA, immobilised ROR1 ECD, construct titrated. As to the method: A 96-well Costar-3366 plate was coated with 50 μL/well of 2 μg/mL […] (Acro Biosystems cat. #R01-H522Y) in PBS overnight at 4° C. The plate was rinsed once with PBS containing 0.05% Tween 20 (PBS-T) and blocked with 100 μL/well of 5% non-fat milk in PBS (5% M-P) for 1 h at 25° C. Antibody samples were serially diluted 2-fold using 5% M-P and were incubated for 1 h at 25° C. (50 μL/well). The plate was washed three times with PBS-T and 50 μL/well anti-human kappa, HRP conjugate (Southern Biotech cat. #2060-05) diluted 10,000-fold in 5% M-P was added for 1 h at 25° C. The plate was washed three times with PBS-T, developed with 50 μL/well 1-Step Ultra TMB-ELISA (Thermo Scientific cat. #34028). The reaction was terminated by the addition of 2 N H₂SO₄ and the A450 was determined using a Spectramax plate reader.
Next, the binding of bispecific binding molecules to ROR was characterized by ELISA using recombinantly-expressed extracellular domain of RORL. ROR was immobilized on a microtiter plate, the bispecific binding molecules were titrated, and binding was quantitated with an anti-human kappa-HRP reagent. Consistent with the cell binding data, all constructs bound ROR1 in a concentration-dependent manner (FIG. 6). Moreover, monovalent ROR1 constructs 13-15 bound less tightly than all but two of the bivalent constructs.

Assay [4] has as its target T4, human ROR1 on cells (human, UniProt Q01973 30-937). The assay is described as follows: cell-based or functional assay.
Assay [5] has as its target T4, human ROR1 on cells. Kind of assay: flow cytometry on JeKo-1 cells. As to the method: ROR1 binding was quantitated using both ROR1-transfected MEC cells and JeKo-1 cells. For each condition, 2.5E5 cells were used. The cells were placed in 50 μL of PBS with 2% FBS. Next, the cells were diluted with an equal volume of 2× stock of the test bispecific binding molecule. The cells and antibody were co-incubated on ice for 20 min. The cells were then washed 3 times with 300 μL of FACS buffer and were resuspended in 100 μL of anti-human Fc-PE conjugate antibody (Invitrogen cat. #12499882) and incubated on ice with reduced light for 20 min. Subsequently, the cells were washed 3 times with 300 μL of FACS buffer and fixed with 2% paraformaldehyde for 10 min at 25° C. The cells then were washed 2 times with 300 μL of FACS buffer and analyzed on a Miltenyi MACSQuant Analyzer.
The influence of ROR expression levels on binding of the bispecific constructs was assessed by flow cytometry using JeKo-1 cells. JeKo-1 cells express lower levels of ROR (˜13,000 copies/cell) than the ROR1-transfected MEC cells (˜56,000 copies/cell). All constructs bound JeKo-1 cells (FIG. 5). […] Specifically, monovalent ROR1 constructs generally bound more weakly than the bivalent constructs (FIG. 5, Panel A, compare constructs 14 and 15 with other constructs; FIG. 5, Panel C, compare constructs 15-17 with other constructs).

Assay [6] deals with T2, human CD3 on Jurkat cells. Kind of assay: flow cytometry on Jurkat cells. As to the method:
as §1
Background: In flow cytometry, cells or beads pass a laser one at a time.

T4 sequence (Q01973 30-937 limits assumed): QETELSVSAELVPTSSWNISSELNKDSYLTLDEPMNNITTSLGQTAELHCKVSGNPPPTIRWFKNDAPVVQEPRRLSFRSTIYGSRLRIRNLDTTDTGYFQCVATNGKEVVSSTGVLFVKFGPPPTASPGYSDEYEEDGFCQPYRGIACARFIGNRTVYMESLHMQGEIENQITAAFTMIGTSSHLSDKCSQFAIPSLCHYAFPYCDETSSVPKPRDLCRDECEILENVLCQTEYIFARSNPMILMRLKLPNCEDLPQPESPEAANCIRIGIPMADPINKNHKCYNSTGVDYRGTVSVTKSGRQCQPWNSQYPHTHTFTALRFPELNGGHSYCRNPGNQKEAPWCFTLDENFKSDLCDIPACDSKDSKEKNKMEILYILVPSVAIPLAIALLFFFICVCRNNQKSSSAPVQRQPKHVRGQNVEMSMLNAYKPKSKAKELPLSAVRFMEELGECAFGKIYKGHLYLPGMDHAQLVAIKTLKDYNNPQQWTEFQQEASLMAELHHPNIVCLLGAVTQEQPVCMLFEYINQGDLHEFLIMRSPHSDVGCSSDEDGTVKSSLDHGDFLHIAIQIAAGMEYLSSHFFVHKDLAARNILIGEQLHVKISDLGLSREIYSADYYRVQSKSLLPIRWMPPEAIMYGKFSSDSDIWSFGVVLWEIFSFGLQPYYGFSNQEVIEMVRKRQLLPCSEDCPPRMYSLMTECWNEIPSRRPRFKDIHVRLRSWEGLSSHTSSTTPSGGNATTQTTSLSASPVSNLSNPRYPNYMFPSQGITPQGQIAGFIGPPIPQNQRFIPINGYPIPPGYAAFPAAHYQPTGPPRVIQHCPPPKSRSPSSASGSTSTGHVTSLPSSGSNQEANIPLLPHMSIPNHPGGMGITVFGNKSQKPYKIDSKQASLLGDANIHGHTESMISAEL
T2 sequence (P09693 23-182 limits assumed, chain 1 of 3): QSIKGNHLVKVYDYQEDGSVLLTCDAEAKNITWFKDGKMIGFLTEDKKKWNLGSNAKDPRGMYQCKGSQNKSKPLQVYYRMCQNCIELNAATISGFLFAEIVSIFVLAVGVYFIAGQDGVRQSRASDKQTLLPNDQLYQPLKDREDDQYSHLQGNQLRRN
T2 sequence (P04234 22-171 limits assumed, chain 2 of 3): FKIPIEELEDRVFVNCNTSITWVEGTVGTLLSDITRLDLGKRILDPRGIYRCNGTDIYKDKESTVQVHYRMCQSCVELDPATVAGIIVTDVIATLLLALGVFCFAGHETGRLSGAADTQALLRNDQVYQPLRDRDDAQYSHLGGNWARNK
T2 sequence (P07766 23-207 limits assumed, chain 3 of 3): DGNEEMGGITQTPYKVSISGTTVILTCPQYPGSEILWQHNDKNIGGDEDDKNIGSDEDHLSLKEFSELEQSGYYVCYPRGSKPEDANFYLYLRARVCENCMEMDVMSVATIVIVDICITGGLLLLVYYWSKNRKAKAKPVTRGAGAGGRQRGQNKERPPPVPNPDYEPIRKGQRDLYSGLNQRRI
T1 sequence (Q01973 30-406 limits assumed): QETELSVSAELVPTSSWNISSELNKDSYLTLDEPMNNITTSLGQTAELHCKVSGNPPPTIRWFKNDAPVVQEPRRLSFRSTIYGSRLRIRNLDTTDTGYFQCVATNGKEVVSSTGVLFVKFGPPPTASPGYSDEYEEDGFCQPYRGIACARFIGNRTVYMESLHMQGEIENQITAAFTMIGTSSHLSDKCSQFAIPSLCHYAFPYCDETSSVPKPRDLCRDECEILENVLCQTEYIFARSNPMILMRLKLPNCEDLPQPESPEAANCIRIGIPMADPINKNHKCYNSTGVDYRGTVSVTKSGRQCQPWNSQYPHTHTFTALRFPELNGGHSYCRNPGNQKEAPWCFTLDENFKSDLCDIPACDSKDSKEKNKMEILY
T3 sequence (Q01973 30-406 limits assumed): as above

B1: Bispecific construct 8 (bispecific antibody, human IgG1, kappa)
heavy: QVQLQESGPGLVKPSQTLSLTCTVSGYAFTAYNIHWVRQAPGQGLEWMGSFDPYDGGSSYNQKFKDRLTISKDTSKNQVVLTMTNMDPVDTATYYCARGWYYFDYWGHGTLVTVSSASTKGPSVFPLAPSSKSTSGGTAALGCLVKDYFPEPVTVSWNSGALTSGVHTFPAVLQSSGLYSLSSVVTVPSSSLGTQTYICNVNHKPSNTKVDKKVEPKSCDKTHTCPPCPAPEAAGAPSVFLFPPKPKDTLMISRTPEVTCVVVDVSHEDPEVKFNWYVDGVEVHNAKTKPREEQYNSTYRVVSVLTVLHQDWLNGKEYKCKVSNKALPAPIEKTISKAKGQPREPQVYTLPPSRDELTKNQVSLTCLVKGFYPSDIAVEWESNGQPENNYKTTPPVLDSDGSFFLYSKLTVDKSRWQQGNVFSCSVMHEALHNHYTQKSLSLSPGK
light: DIVMTQTPLSLPVTPGEPASISCRASKSISKYLAWYQQKPGQAPRLLIYSGSTLQSGIPPRFSGSGYGTDFTLTINNIESEDAAYYFCQQHDESPYTFGEGTKVEIKRTVAAPSVFIFPPSDEQLKSGTASVVCLLNNFYPREAKVQWKVDNALQSGNSQESVTEQDSKDSTYSLSSTLTLSKADYEKHKVYACEVTHQGLSSPVTKSFNRGECGGGGSGGGGSQVQLVQSGAEVKKPGASVKVSCKASGYTFTRYTMHWVRQAPGQGLEWMGYINPSRGYTNYNQKFKDRVTLTTDKSSSTAYMELSSLRSEDTAVYYCARYYDDHYSLDYWGQGTLVTVSSGGGGSGGGGSGGGGSGGGGSDIQMTQSPSSLSASVGDRVTITCSASSSVSYMNWYQQKPGKAPKRLIYDTSKLASGVPSRFSGSGSGTDFTLTISSLQPEDFATYYCQQWSSNPFTFGQGTKLEIK
notes: anti-CD3 scFv Ab9 (OKT3-based); ROR1 arm Ab1; valency 2/2
By Kd is commonly meant the free concentration of one partner at which half of the binding sites on the other are occupied at equilibrium, for simple one-to-one binding. Turning to B1, the Kd in assay [1] was 0.151 nM. The binding result in assay [2] is “binds”. The Kd in assay [3] was 0.098 nM. Further, in the assay with human ROR1 on cells [4], the “EC50, LDH release, A549” value is 3.39 ng/mL and 17.1 pM; the “EC50, LDH release, A4573” value was 1.2 ng/mL and 6.1 pM; the “EC50, LDH release, JeKo-1” value is 1.62 ng/mL and 8.1 pM; the “EC50, LDH release, Mino” value was 0.95 ng/mL and 4.8 pM. In the assay with human ROR1 on cells [4], the “EC50, LDH release, Saos-2” value is 2.92 ng/mL and 14.7 pM; the “Max. LDH Release, Mino” value turned out to be 53%.

B2: Bispecific construct 4 (bispecific antibody, human IgG1, kappa)
heavy: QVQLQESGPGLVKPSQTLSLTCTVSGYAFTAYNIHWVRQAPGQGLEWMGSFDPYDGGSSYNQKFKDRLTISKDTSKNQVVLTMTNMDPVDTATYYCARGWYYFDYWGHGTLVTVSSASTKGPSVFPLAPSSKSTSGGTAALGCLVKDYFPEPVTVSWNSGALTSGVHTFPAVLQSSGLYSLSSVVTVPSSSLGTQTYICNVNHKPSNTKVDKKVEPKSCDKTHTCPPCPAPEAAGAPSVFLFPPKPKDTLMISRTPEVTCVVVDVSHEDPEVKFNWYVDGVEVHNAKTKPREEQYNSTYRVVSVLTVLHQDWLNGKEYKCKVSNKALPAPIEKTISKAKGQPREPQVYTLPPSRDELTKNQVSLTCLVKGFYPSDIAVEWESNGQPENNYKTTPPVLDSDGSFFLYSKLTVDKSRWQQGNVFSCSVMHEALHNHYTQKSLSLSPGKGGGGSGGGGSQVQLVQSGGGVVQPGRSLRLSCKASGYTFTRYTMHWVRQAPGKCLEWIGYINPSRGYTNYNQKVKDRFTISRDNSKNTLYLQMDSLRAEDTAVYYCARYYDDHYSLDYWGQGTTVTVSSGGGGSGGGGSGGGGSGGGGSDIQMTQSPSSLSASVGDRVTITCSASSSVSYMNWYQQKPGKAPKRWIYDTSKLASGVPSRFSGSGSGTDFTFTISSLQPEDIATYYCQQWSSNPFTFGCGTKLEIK
light: DIVMTQTPLSLPVTPGEPASISCRASKSISKYLAWYQQKPGQAPRLLIYSGSTLQSGIPPRFSGSGYGTDFTLTINNIESEDAAYYFCQQHDESPYTFGEGTKVEIKRTVAAPSVFIFPPSDEQLKSGTASVVCLLNNFYPREAKVQWKVDNALQSGNSQESVTEQDSKDSTYSLSSTLTLSKADYEKHKVYACEVTHQGLSSPVTKSFNRGEC
notes: disulfide-stabilized anti-CD3 scFv Ab8; ROR1 arm Ab1; valency 2/2
One may read the EC50 (read off the curve) as the concentration giving half of the maximal effect. A high value points to weaker potency. Consider B2, for which the Kd amounted to 0.105 nM in assay [1] and 0.085 nM in assay [3]. In addition, in the assay with human ROR1 on cells [5], the “EC50 (read off the curve)” value was roughly 0.02 µg/mL. The binding result in assay [6] was “binds”.

B3: Bispecific construct 2 (bispecific antibody, human IgG1, kappa)
heavy: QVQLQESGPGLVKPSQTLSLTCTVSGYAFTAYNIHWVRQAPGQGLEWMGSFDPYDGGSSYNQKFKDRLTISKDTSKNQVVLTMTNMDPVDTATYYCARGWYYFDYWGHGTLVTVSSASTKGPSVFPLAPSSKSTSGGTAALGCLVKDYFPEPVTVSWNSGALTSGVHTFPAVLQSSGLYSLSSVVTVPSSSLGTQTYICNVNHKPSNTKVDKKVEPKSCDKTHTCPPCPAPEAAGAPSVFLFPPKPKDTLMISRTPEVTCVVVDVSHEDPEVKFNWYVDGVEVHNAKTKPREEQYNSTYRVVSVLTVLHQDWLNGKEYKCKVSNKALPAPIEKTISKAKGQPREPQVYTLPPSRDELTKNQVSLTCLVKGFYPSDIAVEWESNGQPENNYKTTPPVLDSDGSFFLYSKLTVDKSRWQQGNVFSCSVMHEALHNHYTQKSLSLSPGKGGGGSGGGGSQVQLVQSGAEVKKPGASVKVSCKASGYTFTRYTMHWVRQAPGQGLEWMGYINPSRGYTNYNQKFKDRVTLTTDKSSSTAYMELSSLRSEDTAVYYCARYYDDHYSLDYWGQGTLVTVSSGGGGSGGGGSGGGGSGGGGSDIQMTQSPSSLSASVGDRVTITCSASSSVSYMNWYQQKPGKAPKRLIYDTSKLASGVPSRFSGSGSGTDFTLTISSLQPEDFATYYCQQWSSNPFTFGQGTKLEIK
light: B2 light
notes: as for B1
On to B3, for which the values for the Kd in assay [1] and in assay [3] were 0.129 nM and 0.041 nM, respectively. Besides, the “EC50 (read off the curve)” value in the assay with human ROR1 on cells [5] was roughly 0.02 µg/mL. Besides, in assay [2], the binding result is listed as “binds”. Moreover, the “EC50, LDH release, ROR1-transfected MEC” value with human ROR1 on cells [4] was 5 ng/mL and 25 pM. For the same molecule, the “Max. LDH Release, ROR1-transfected MEC” value with human ROR1 on cells [4] stood at 50%.

B4: Bispecific construct 5 (bispecific antibody, human IgG1, kappa)
heavy: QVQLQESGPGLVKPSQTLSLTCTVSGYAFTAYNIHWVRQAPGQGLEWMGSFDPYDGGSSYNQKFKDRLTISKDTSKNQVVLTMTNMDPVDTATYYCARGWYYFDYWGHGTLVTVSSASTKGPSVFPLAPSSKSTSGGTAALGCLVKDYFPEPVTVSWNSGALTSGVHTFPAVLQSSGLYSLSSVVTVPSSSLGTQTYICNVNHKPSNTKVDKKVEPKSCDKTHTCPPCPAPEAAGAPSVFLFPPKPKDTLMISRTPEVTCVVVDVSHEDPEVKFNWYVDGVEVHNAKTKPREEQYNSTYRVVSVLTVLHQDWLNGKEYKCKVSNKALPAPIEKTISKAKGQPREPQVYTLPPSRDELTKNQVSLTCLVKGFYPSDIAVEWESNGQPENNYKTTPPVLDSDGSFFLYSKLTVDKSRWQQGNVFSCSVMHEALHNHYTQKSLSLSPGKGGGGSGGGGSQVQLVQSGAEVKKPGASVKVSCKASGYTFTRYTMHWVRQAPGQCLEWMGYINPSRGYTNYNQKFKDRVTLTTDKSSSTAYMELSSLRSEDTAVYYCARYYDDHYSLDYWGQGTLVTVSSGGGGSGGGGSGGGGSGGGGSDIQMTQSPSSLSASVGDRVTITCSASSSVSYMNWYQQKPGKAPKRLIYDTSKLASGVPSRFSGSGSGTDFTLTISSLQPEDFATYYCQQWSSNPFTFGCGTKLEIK
light: B2 light
notes: disulfide-stabilized anti-CD3 scFv Ab9; ROR1 arm Ab1; valency 2/2
As for B4, the Kd in assay [1] turned out to be 0.07 nM; in assay [3], 0.055 nM. Besides, the “EC50 (read off the curve)” value in the assay with human ROR1 on cells [5] was roughly 0.02 µg/mL. Besides, in assay [6], the binding result is recorded as “binds”.
